Assay results as given in patent publication US20170002051A1.

Key:
[1] = target: porcine CSF1R (porcine) (UniProt K9IVS4); experiment: cell-based or functional assay
[2] = target: chicken CSF1R (chicken); experiment: cell-based or functional assay

Substance | survival/proliferation of BaF/3 cells expressing porcine CSF1R (Cell TiterGlo), EC50 [1] [µg/mL] | survival/proliferation of BaF/3 cells expressing chicken CSF1R (Cell TiterGlo), EC50 [2] [µg/mL]
recombinant human CSF1 (Sigma 6518) (from UniProt P09603 33-190) (ligand) | 0.03 | –
recombinant porcine CSF1 (from UniProt A0A287BPE2 36-189) (ligand) | 0.03 | –
recombinant chicken CSF1 (active fragment of chicken CSF-1, expressed in E. coli from pTLW54, refolded) (ligand) | – | 0.02
